From patent publication US20090068173A1 (LABORATOIRES SERONO S A, published 2009)

Molecular target: T1, CCL3/MIP-1 alpha (UniProt P10147 24-92)
T1 construct: also called MIP-1α; 125I-CCL3/MIP-1 alpha
T1 sequence (looked up): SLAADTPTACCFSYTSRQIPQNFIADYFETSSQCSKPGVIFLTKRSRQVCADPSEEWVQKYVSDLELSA
Assay: SPA competition: ChBP-59-HIS (insect cells) titrated against radiolabeled CCL3/MIP-1 alpha and bead-immobilized CCR5

B1: ChBP-59-HIS (recombinant histidine-tagged ChBP-59, mature form) (other)
chain: EDDEDYGDLGGCPFLVAENKTGYPTIVACKQDCNGTTETAPNGTRCFSIGDEGLRRMTANLPYDCPLGQCSNGDCIPKETYEVCYRRNWRDKKNHHHHHH
EC50: 0.012 nM
